The values below come from paper PMC9513805, “A natural transdifferentiation event involving mitosis is empowered by integrating signaling inputs with conserved plasticity factors”.

The target of one data set is T1, HMG-POP-1 (Caenorhabditis elegans, UniProt Q10666 181-281).
T1 sequence: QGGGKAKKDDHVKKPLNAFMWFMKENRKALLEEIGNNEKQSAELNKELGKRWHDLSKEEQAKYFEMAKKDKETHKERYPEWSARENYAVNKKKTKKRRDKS
Put plainly: EMSA; 20 mM Tris-HCl pH 8.0, 100 mM NaCl, 100 ug/mL BSA, 1 mM EDTA, 1 mM DTT, 0.1% NP-40; 20 min on ice (supershift 30 min at room temperature), 200 ng Cy5 probe; 6%. The note with it: protein: recombinant; tags: N-terminal 6xHis (pSJ769); label: Cy5 on forward strand; blunt. (In general: A gel shift assay detects complexes by their altered migration in electrophoresis.)

The target in the next data set is SOX-2 (Caenorhabditis elegans, UniProt Q21305 1-283). The description is as above. Particulars: protein: recombinant; tags: N-terminal 6xHis, C-terminal HA (pSJ6094); label: Cy5 on forward strand; blunt.
Chain of SOX-2 (Q21305 whole entry): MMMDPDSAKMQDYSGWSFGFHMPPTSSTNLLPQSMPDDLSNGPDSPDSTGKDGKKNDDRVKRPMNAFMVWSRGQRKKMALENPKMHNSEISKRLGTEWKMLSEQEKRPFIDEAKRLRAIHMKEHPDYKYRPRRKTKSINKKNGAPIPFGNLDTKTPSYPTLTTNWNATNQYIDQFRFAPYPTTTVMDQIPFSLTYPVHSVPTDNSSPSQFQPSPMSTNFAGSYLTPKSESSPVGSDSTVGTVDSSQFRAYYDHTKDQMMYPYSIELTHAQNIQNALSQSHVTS

B1: lim-6 intron 4 probe 2 (dsDNA)
DNA 1: CTGCTACCGTAGTGCTTTGTTGATTTAACACACA
DNA 2: TGTGTGTTAAATCAACAAAGCACTACGGTAGCAG
In the case of B1, the binding result with HMG-POP-1 and in the data set with SOX-2 was “binds” throughout.

B2: lim-6 intron 4 probe 1 (dsDNA)
DNA 1: TACGATTTGCAAACAACAAACATTCCAGACAGAT
DNA 2: ATCTGTCTGGAATGTTTGTTGTTTGCAAATCGTA
For the molecule B2, the binding result with HMG-POP-1 and with SOX-2 was “binds” throughout.
